Assay results taken from PMC3620106, “One-Step Chromatographic Purification of Helicobacter pylori Neutrophil-Activating Protein Expressed in Bacillus subtilis” (PLoS ONE, 2013).

Target: the molecule itself
Assay: AUC; sedimentation velocity, HP-NAP at 0.3 mg/ml in D-PBS, pH 7.2, 41,000 rpm, 20°C, SEDFIT c(s); monomer mass by LC-MS

B1: Helicobacter pylori neutrophil-activating protein (HP-NAP), recombinant, expressed in Bacillus subtilis (natural protein)
chain: MKTFEILKHLQADAIVLFMKVHNFHWNVKGTDFFNVHKATEEIYEEFADMFDDLAERIVQLGHHPLVTLSEAIKLTRVKEETKTSFHSKDIFKEILEDYKYLEKEFKELSNTAEKEGDKVTVTYADDQLAKLQKSIWMLQAHLA
notes: monomer 16.934 kDa by LC-MS (theoretical 16.933 kDa); napA was cut from pET28a-His-NAP with NdeI and XhoI and cloned into pRPA; The measured monomer mass (16.934 kDa) fits the theoretical mass of the whole untagged protein (16.933 kDa); also called recombinant HP-NAP; purified HP-NAP; source: B. subtilis DB104 harboring pRPA-NAP; copies: 12
Question: With B1 as the protein, how does the “stoichiometry N” value read?
Answer: 12
